In paper PMC9482650, “Quantitative fragmentomics allow affinity mapping of interactomes” (Nature Communications, 2022):
Blank lines part the entries; values can stand above or below the binder they belong to.

Key:
Experiment in all cases: holdup assay
Set-up in all cases: key: below the threshold = too weak to quantify, mostly under pKd 3.1 to 4
Settings in all cases: plain residues with an end cap or a label only (N-terminal biotin on a linker: ado-ado)
FRMPD2_1, Q68DX3 = target: FRMPD2_1, Q68DX3
PICK1, Q9NRD5 = target: PICK1, Q9NRD5
Inadl_8, Q8NI35 = target: Inadl_8, Q8NI35
ARHGAP21, Q5T5U3 = target: T1, ARHGAP21, Q5T5U3
T1 sequence (Q5T5U3 45-169, limits assumed, looked up): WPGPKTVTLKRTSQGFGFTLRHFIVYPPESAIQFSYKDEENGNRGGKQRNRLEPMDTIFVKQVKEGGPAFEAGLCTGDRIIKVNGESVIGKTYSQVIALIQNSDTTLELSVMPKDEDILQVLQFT

Inadl_2, Q8NI35 = target: Inadl_2, Q8NI35
DLG5_1, Q8TDM6 = target: DLG5_1, Q8TDM6
DFNB31_2, Q9P202 = target: T2, DFNB31_2, Q9P202
T2 sequence (Q9P202 274-371, limits assumed, looked up): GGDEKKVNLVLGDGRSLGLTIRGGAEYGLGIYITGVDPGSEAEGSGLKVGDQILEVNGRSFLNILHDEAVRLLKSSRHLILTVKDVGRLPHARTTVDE

MAGI2_5, Q86UL8 = target: MAGI2_5, Q86UL8
Inadl_5, Q8NI35 = target: Inadl_5, Q8NI35
PDZD2_2, O15018 = target: T3, PDZD2_2, O15018
T3 sequence (O15018 329-429, limits assumed, looked up): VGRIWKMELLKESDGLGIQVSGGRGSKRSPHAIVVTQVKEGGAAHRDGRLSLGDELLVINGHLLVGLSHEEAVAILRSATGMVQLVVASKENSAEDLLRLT

FRMPD4, Q14CM0 = target: FRMPD4, Q14CM0
IL16_3, Q14005 = target: IL16_3, Q14005
HTRA1, Q92743 = target: HTRA1, Q92743
DLG2_2, Q15700 = target: DLG2_2, Q15700
GORASP1, Q9BQQ3 = target: GORASP1, Q9BQQ3
MAGI3_2, Q5TCQ9 = target: MAGI3_2, Q5TCQ9
GRIP2_3, Q9C0E4 = target: GRIP2_3, Q9C0E4
DLG4_3, P78352 = target: DLG4_3, P78352
HTRA3, P83110 = target: T4, HTRA3, P83110
T4 sequence (P83110 354-453, limits assumed, looked up): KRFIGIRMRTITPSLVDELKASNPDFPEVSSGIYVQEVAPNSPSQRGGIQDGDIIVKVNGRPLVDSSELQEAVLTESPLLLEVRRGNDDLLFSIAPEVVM

Inadl_10, Q8NI35 = target: Inadl_10, Q8NI35
GRID2IP_2, A4D2P6 = target: GRID2IP_2, A4D2P6
LIN7A, O14910 = target: T5, LIN7A, O14910
T5 sequence (O14910 103-200, limits assumed, looked up): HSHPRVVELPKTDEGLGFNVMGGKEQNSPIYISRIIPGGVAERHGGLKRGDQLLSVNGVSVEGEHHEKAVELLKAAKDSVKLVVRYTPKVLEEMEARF

TX1BP3, O14907 = target: T6, TX1BP3, O14907
T6 sequence (O14907 10-122, limits assumed, looked up): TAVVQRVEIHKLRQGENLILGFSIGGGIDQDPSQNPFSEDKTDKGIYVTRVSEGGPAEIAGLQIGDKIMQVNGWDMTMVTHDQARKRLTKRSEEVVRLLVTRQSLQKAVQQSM

LNX1_2, Q8TBB1 = target: LNX1_2, Q8TBB1
TJP1_2, Q07157 = target: TJP1_2, Q07157
SCRIB_2, Q14160 = target: SCRIB_2, Q14160
SYNJ2BP, P57105 = target: T7, SYNJ2BP, P57105
T7 sequence (P57105 8-110, limits assumed, looked up): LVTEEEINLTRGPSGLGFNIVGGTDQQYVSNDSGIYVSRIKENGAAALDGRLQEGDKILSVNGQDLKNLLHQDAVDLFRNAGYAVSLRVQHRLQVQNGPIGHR

GRIP1_7, Q9Y3R0 = target: T8, GRIP1_7, Q9Y3R0
T8 sequence (Q9Y3R0 999-1096, limits assumed, looked up): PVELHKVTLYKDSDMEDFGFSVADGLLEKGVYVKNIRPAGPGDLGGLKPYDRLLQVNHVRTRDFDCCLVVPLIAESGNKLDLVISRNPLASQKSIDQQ

MAGI2_3, Q86UL8 = target: MAGI2_3, Q86UL8
Sequence of MAGI2_3, Q86UL8 (Q86UL8 600-682): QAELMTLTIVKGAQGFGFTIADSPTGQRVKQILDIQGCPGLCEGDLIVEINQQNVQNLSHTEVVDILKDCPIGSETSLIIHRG

Sequence of Inadl_2, Q8NI35 (Q8NI35 238-335): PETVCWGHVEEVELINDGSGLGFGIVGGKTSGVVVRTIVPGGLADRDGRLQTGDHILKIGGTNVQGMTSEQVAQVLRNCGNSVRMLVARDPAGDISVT
Sequence of DLG2_2, Q15700 (Q15700 189-283): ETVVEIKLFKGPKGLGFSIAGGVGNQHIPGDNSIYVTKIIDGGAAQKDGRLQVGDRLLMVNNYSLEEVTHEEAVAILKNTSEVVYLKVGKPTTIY
Sequence of IL16_3, Q14005 (Q14005 1107-1207): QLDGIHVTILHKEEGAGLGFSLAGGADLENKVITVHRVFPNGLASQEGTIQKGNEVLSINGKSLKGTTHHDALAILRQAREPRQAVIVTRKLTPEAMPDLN
Sequence of Inadl_5, Q8NI35 (Q8NI35 673-780): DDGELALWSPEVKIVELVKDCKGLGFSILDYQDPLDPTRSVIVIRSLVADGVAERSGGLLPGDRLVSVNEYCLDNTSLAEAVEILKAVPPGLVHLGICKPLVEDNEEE
Sequence of GRID2IP_2, A4D2P6 (A4D2P6 272-370): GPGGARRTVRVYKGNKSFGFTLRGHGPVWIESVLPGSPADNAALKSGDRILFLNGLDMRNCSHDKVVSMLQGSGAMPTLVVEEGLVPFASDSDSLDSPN
Sequence of Inadl_8, Q8NI35 (Q8NI35 1425-1530): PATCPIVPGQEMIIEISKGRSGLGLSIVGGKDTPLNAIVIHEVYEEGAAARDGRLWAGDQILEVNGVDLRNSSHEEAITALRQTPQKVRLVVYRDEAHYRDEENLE
Sequence of GORASP1, Q9BQQ3 (Q9BQQ3 1-208): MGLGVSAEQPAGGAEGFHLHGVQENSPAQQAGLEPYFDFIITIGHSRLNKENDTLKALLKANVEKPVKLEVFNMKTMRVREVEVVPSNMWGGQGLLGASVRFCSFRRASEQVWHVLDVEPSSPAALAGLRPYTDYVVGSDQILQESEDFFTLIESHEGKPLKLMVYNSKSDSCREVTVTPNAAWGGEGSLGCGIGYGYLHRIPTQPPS
Sequence of DLG4_3, P78352 (P78352 306-403): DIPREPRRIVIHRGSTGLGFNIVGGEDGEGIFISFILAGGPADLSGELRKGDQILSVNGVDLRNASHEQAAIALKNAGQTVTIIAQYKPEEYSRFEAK
Sequence of SCRIB_2, Q14160 (Q14160 857-960): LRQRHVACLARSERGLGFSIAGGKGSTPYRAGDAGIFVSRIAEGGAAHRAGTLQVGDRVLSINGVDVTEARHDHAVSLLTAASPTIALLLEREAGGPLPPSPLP
Sequence of MAGI2_5, Q86UL8 (Q86UL8 915-1017): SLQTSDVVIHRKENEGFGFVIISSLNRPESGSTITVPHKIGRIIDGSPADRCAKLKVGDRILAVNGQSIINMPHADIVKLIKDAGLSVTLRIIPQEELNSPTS
Sequence of GRIP2_3, Q9C0E4 (Q9C0E4 238-339): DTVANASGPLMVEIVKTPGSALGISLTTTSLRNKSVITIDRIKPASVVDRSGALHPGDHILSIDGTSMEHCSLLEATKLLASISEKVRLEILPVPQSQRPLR
Sequence of HTRA1, Q92743 (Q92743 360-477): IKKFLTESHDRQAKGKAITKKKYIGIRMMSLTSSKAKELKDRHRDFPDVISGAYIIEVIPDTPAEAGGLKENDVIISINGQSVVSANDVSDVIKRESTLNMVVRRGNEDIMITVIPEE
Sequence of Inadl_10, Q8NI35 (Q8NI35 1673-1763): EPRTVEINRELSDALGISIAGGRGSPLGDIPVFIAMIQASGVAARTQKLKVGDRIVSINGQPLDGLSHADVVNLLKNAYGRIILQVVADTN
Sequence of MAGI3_2, Q5TCQ9 (Q5TCQ9 398-503): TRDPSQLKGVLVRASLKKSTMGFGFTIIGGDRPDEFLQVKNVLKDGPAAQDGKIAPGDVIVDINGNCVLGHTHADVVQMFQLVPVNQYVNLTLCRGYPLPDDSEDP
Sequence of DLG5_1, Q8TDM6 (Q8TDM6 617-713): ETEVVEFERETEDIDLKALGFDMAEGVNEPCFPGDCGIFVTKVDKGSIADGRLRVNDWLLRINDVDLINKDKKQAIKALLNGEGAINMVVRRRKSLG
Sequence of LNX1_2, Q8TBB1 (Q8TBB1 371-470): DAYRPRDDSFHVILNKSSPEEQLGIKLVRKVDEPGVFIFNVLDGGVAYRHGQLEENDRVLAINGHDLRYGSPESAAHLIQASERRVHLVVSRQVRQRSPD
Sequence of TJP1_2, Q07157 (Q07157 181-274): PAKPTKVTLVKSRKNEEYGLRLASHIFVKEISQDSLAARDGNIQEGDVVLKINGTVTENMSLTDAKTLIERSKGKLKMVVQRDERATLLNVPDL
Sequence of FRMPD4, Q14CM0 (Q14CM0 67-160): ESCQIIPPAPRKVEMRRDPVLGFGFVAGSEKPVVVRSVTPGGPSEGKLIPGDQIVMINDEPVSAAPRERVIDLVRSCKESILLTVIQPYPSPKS
Sequence of PICK1, Q9NRD5 (Q9NRD5 17-115): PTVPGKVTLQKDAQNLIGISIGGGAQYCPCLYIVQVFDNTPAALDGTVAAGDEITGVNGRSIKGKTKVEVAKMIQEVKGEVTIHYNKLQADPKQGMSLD
Sequence of FRMPD2_1, Q68DX3 (Q68DX3 770-861): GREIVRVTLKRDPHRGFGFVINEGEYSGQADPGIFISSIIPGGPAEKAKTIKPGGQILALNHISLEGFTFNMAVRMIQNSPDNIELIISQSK

pKd (FRMPD2_1, Q68DX3): below the threshold | pKd (PICK1, Q9NRD5): below the threshold | pKd (Inadl_8, Q8NI35): 3.48 | pKd (ARHGAP21, Q5T5U3): 4.89 | pKd (Inadl_2, Q8NI35): 3.91 | pKd (DLG5_1, Q8TDM6): below the threshold | pKd (DFNB31_2, Q9P202): below the threshold | pKd (MAGI2_5, Q86UL8): 4.18 | pKd (Inadl_5, Q8NI35): below the threshold | pKd (PDZD2_2, O15018): 5.88 | pKd (FRMPD4, Q14CM0): 5.25 | pKd (IL16_3, Q14005): below the threshold | pKd (HTRA1, Q92743): 5.58 | pKd (DLG2_2, Q15700): below the threshold | pKd (GORASP1, Q9BQQ3): 5.11 | pKd (MAGI3_2, Q5TCQ9): 4.75 | pKd (GRIP2_3, Q9C0E4): below the threshold | pKd (DLG4_3, P78352): below the threshold | pKd (HTRA3, P83110): 5.5 | pKd (Inadl_10, Q8NI35): 5.45 | pKd (GRID2IP_2, A4D2P6): 4.52 | pKd (LIN7A, O14910): below the threshold | pKd (TX1BP3, O14907): 4.26 | pKd (LNX1_2, Q8TBB1): below the threshold | pKd (TJP1_2, Q07157): 3.67 | pKd (SCRIB_2, Q14160): below the threshold | pKd (SYNJ2BP, P57105): 4.47 | pKd (GRIP1_7, Q9Y3R0): below the threshold | pKd (MAGI2_3, Q86UL8): below the threshold
B1: YAP1, P46937 (peptide)
chain: LDKESFLTWL

pKd (FRMPD2_1, Q68DX3): below the threshold | pKd (PICK1, Q9NRD5): 4.11 | pKd (Inadl_8, Q8NI35): below the threshold | pKd (ARHGAP21, Q5T5U3): 3.9 | pKd (Inadl_2, Q8NI35): below the threshold | pKd (DLG5_1, Q8TDM6): below the threshold | pKd (DFNB31_2, Q9P202): below the threshold | pKd (MAGI2_5, Q86UL8): below the threshold | pKd (Inadl_5, Q8NI35): below the threshold | pKd (PDZD2_2, O15018): below the threshold | pKd (FRMPD4, Q14CM0): 3.63 | pKd (IL16_3, Q14005): below the threshold | pKd (HTRA1, Q92743): below the threshold | pKd (DLG2_2, Q15700): below the threshold | pKd (GORASP1, Q9BQQ3): below the threshold | pKd (MAGI3_2, Q5TCQ9): below the threshold | pKd (GRIP2_3, Q9C0E4): below the threshold | pKd (DLG4_3, P78352): below the threshold | pKd (HTRA3, P83110): below the threshold | pKd (Inadl_10, Q8NI35): below the threshold | pKd (GRID2IP_2, A4D2P6): 3.77 | pKd (LIN7A, O14910): below the threshold | pKd (TX1BP3, O14907): below the threshold | pKd (LNX1_2, Q8TBB1): below the threshold | pKd (TJP1_2, Q07157): below the threshold | pKd (SCRIB_2, Q14160): below the threshold | pKd (SYNJ2BP, P57105): below the threshold | pKd (GRIP1_7, Q9Y3R0): below the threshold | pKd (MAGI2_3, Q86UL8): below the threshold
B2: UNC93A, Q86WB7 (peptide)
chain: AEDEEIQTKM
